Assay: soluble on expression in E. coli; label from the status in PepcDB or PDB records

Sequence	soluble on expression in E. coli
MRIKPECALCITRQVVDVAKEITDDKSEQFKIIAWGIEKISEAYGESSVPSFMGTEIHRHIKKMSKNSDPYKNLKNVANEFALKYLNDVEKLLESDDELERLQNKVKLSIAGNVIDFGPYSTGVNIEKMVKDTLDGKLDVDFSKELLDELKNSKKVFYTCDNAGEIVFDLPLIKELKNYVEVVVSVKGSPILNDATLDDVKTAGIDKVTKVITSGTDAIGVRFEESSEEFINELNSSDFVIAKGMGNYESLTEYEEKHGQNSEKIPVYYILKAKCEPVAEHIGVSEGDNVLLRKEISKVLEHHHHHH	soluble
MRIVALEGIDGSGVSTHSRLLHARLAGAGVKSCLWKEPTEGPVGRLIRGFLRSTEGVDSDLMALLFAADRLWGLRLGVVERCGGSPEVLVVDRYKYSSLAYQGVGSGLEWVDAVNRKAPEAEILVYIDVPTEVALRRITARERREVFETPEFLERVKSMYEEVLRLARARGVKVIRVEGVRGGVERGIEDVQGEIAERVFEALGLARA	soluble
MRIVSLCPSNTELLAYLGRLDDVAAVDDSSDWPPEVKQLPKVGPDLHIDMDQVEALKPDLVVASLSVPGMERNVKELKRRGLPHLVLAPNSLDDIANDLLRLGEALGETKKAAELVRRYHDVLDWHRERAASAEPARLYWEWWPRPVFTPGGANWLSELSELAGGRNIFSDIPQASVQTEWDDVLARNPSHILLVWVGVQTKKMSPKAVTARPNAQQAEAVRTGNIHILEESLYCRPSPRLLVGLKKLAPLLHPALFPPADDSDPLLGG	not soluble
MRIVTAAVMASTLAVSSLSHAAEVGSGDNWHPGEELTQRSTQSHMFDGISLTEHQRQQMRDLMQQARHEQPPVNVSELETMHRLVTAENFDENAVRAQAEKMANEQIARQVEMAKVRNQMYRLLTPEQQAVLNEKHQQRMEQLRDVTQWQKSSSLKLLSSSNSRSQLEHHHHHH	soluble
MRKKDAYISQVKVRQDPVNQLAVEMRAKRFGLTIEEAKNPLAGSYVGRLCLQGVLTQDQYDATQKYLEVRNDYSCAKGLPSAVYDEKPSSSDDKAREKWVERATEQFCNTQKVLKEAQCLYRQHNLYAALQYLVMEDQELPHLVNALRIALNTLQKYFDPKSKWEMFYCYEKLLKNR	not soluble
MRKLFIALTFLLVPACLSAQLGGKIYLQRADSLLQRVLSLYEVKKYGLLMETYPRNPKQQITYTANTGSEVTQQEVSFLWPYSAMVSGCVSLYKTSGNKKYKKLMDKQIKPGLDLYWDTTRQPECYQSYPAFAGQNDRYYDDNDWVAIDFCDYYAVTKNKEYLKKAIALHDYIYSGWSDELGGGIYWCEQKKESKNTCSNAPATVLCMKLYKLTKDKKYLDQAMATYQWTRDNLRDPSDFVYWDNKNLQGKIGYAKYTYNSGQMIQAGVLLYQATGDEQYLKDAQQTAKGSYEHFLKPQPTVKGEMKFFPSSPWFNVILFRGLKALYEVDKNDTYVKAMIDNADYAWQYTRDENGLLNNDWSGNRKDKFKSLLENSCMIELYSEISELLEHHHHHH	not soluble
MRKLKITELNRISAEEFKQAEKLPLVVVLDDIRSLHNIGSVFRTSDAFRIECIYLCGITATPPHPEMHKTALGAEFTVDWKYVNNAVDAVDNLRKEGYIVYSIEQAEGSIMLDRLELDKTKKYAIVMGNEVKGVQQEVIDHSDGCIEIPQYGTKHSLNVSVTTGIVIWDLFKKLR	not soluble
MRLEDEIKQVKAFKNDYNKAVVNLIFTYNWLESSSKAFFKDFDLTSQQFNILRILKGQHPNPSTINLLRDRMLDKMCDASRLVERLRIKGLVERSQASSDKRAVDIFITKKGEELLAKIEVEFPAFEEKLHTLSAEEIVVFNNLLDKLRG	not soluble
MRLERVLEEARAKGYPIEDNGLGNLWVVLPRERFKEEMAHYKAMGFNFLADIVGLDYLTYPDPRPERFAVVYELVSLPGWKDGDGSRFFVRVYVPEEDPRLPTVTDLWGSANFLEREVYDLFGIVFEGHPDLRKILTPEDLEGHPLRKDYPLGETPTLFREGRYIIPAEFRAALTGKDPGLTFYKGGSRKGYRSLWADLKKAREVKGLEHHHHHH	not soluble
MRLILPVGLIATTLAIAPVRFDREKVFRVKPQDEKQADIIKDLAKTNELDFWYPGATHHVAAKMMVDFRVSEKESQAIQSALDQNKMHYEILIHDLQEEIEKQFDVKEDIPGRHSYAKYNNWEKIVAWTEKMMDKYPEMVSRIKIGSTVEDNPLYVLKIGEKNERRKAIFMDCGIHAREWVSPAFCQWFVYQATKTYGRNKIMTKLLDRMNFYILPVFNVDGYIWSWTKNRMWRKNRSKNQNSKCIGTDLNRNFNASWNSIPNTNDPCADNYRGSAPESEKETKAVTNFIRSHLNEIKVYITFHSYSQMLLFPYGYTSKLPPNHEDLAKVAKIGTDVLSTRYETRYIYGPIESTIYPISGSSLDWAYDLGIKHTFAFELRDKGKFGFLLPESRIKPTCRETMLAVKFIAKYILKHTS	soluble
MRLLVMVFTSDKKLVEEIKREVERRGFRVRDVQSPDELRRDLEKLLREHNAQFVIIVVTDKEWAKEALKKAKEEGVQIFLILWDTNEDELRKFREEVERKGVDVRTATSPDDVKDIVREFLERVGSHHHHHH	soluble
MRLPILIINFKAYGEAAGKRAVELAKAAERAARELGVNIVVAPNHLELGLVSQSVDIPVYAQGADVEAGGAHTAHVSLENIKEAGGSGVILNHSEAPLKLNDLARLVAKAKSLGLDVVVCAPDPRTSLAAAALGPHAVAVEPPELIGTGRAVSRYKPEAIVETVGLVSRHFPEVSVITGAGIESGDDVAAALRLGTRGVLLASAAVKAKDPYAKIVELAKPLSELR	soluble
MRLQTVKHFLEPVLEPLIRKVVKEEVELALGKHLAGIKWICEKETHPLESRNLQLKFLNNLSLPVFTSARIEGDEGQAIRVGLIDPSTGQIFSSGPASSAKLEVFVVEGDFNSVSDWTDEDIRNNIVREREGKKPLLNGNVFAVLNDGIGVMDEISFTDNSSWTRSRKFRLGVRIVDQFDYVKIREAITESFVVRDHRGELYKKHHPPSLFDEVWRLEKIGKDGAFHRRLNLSNINTVKDFLTHFHLNSSKLRQVLGTGMSSKMWEITLDHARSCVLDSSVHVYQAPGFQKKTAVVFNVVAQVLGLLVDFQYIPAEKLSEIEKALILSVYIFDLAQAEVMVIDALSHLNEVISYDDEVSMMRNVLNAPASQGSVAGIDYSGLSLTSLDGYGFVSSLHNTAECSGKHSDDVDMEVTPHGLYEDYDNLWNCSHILGLEEPQSELQSALDDFMSQKNASVGGKAHSKRWTKLFSVSRWLSVFKYVKLGKI	soluble
MRMAQVVLENVTKVYENKVVAVKNANLVVEDKEFVVLLGPSGCGKTTTLRMIAGLEEITDGKIYIDGKVVNDVEPKDRDIAMVFQNYALYPHMTVYENMAFGLKLRKYPKDEIDRRVREAAKILGIENLLDRKPRQLSGGQRQRVAVGRAIVRNPKVFLFDEPLSNLDAKLRVQMRSELKKLHHRLQATIIYVTHDQVEAMTMADKIVVMKDGEIQQIGTPHEIYNSPANVFVAGFIGSPPMNFVNARVVRGEGGLWIQASGFKVKVPKEFEDKLANYIDKEIIFGIRPEDIYDKLFALAPSPENTITGVVDVVEPLGSETILHVKVGDDLIVASVNPRTQAKEEQKIDLVLDMTRMHAFDKETEKAII	soluble
MRMDLSRIRNFSIIAHVDHGKSTLADRILELTHAVSDREMREQFLDSLELERERGITIKASAVRVTYRAKDGEEYVFHLIDTPGHVDFTYEVSRALAAVEGVLLVVDASQGVEAETLAKFYMALEHGHVIIPVINKIDLPNARPLEVALEVEEVLGLPADEAIFASGKTGEGVEEILEAIVQRIPPPKGDPEAPLKALIFDSVYDAYQGVIPYLRLFEGRVRPGDRIRIYSTGKEFTVDKVGVFTPQGLVATEALEAGEVGWLVAAIRDIHDVQVGDTITLADRPTPSPYPGFRPAKPVVFAGLYPVDSGDYGKLRDALEKLKLNDAALTFEPESSTALGFGFRCGFLGLLHAEIVQERLEREFGLSLIATAPSVVYKVRLKSGEEVEVHNPADLPDPTRIEEILEPYVKLTIFTPEEYVGSLMQLLQEKRGRLVNMNYLPGAQKRVELVYEAPFAEILYDFHDRLKSVSRGYASMDYEQAGYRPGDLVKVNVLVHGEVVDALTFIAHREKAYTMARAIVDKLAEVIPRQLFEVPIQAAIGGKIIARATVKALRKDVLAKCYGGDVTRKKKLLEKQKEGKKRLKAIGKVEVPQEAFLAVLSAGRDEPKG	soluble
MRMIVGHGIDIEELASIESAVTRHEGFAKRVLTALEMERFTSLKGRRQIEYLAGRWSAKEAFSKAMGTGISKLGFQDLEVLNNERGAPYFSQAPFSGKIWLSISHTDQFVTASVILEENHES	soluble
MRNFANYHVDVRRHTSGVVKTICEQCLPTRHNKRDRSLRVNIDTGHCHCYHCGADFYVPDDAEERAKAERQAARKRRAASAVPQHFHRPVFDASKTTLSEATERWLVETRCIPQSVIAGLRITEQEEFMSQSGTKERCVCFNYFEDGKLVNTKFRSGAKNFKMVQGAELIPYNIDSVLGQDTCIIHEGELDAASSLATGFKSVISVPAGANANLSWLDRFMESHFENLKDIIIAVDTDSAGLKLRDELVNRLGAERCRVAVYGPGCKDANEHLVKYGIDSLRIAIEQAEEIPLEGIFTAADLHEDLRALFDNGFGPGAETGWEEMDKICTYERRRLVIVTGIPGAGKSEWLDELVLRLCMRHQWKIAFFSPENNPIVYHLRKLIEKLTGRRFQNGCGMTEGLLLRSEEFLAENVCHIALKGSATPERVLAKARELVLRRGCRIFVFDPVNRFEHTPAPGQSETQYLSNFLNLFTEFATQYNCLVILVAHPRKMNRNPVTNHTPRPDMYDVNGSADFFNKADYGLVVERDKEVGVTRVYVEKVKFKHLGTGGVATFVYDPVSGRYLPCEESQDPSVPPEQRVRNTVNDSSCWLPEKELFE	not soluble
MRNKVLIVLAVIAGALILKSCGEPYSGAKETVGEFMEEIAEGEGRDAIKYLYPAYRDELAKNFKLPVQFTEMKPSEVLACVLSTMGRNIDEVEIKKAIAVNPNTANVVVKVEDKEGIEKFFSFTVVKEGDKWYIAKIEKYIPQVGR	not soluble
MRPESMTDGVPGSDSPAAAAAAASVTTSLHDLQVLVERGTLSGPEKQQADHLVTSLKRELVLRRVGDHLAERTFHELCVRLAVMERDWAAMERHIQQLMPLYELDRQAGIQSPHRDLLVGLNLMRLLAQNRLAEYHMELELLPTTEPQQNPYVLFPFQVEQALTEGSYQKILHIEAGAEWLPFIELLRETTIQEMVTSWAEAYAHVTLEELASMAALPVEQVPALLARVLDCTQYVVQNETVHFIASDHIREAPSQYLLAKEAVSRTMEYIRGLERIV	soluble
MRPLSLKGHERALTRVRFNREGDLTFSCAKDKKPCVWYTENGERIGSYDGHNGAVWDIDVSWDTTKCVTASGDLTVKIWDAELGNCLYTINHQTPMKSCGFSYSGNLVCFTTQKMTKNLSTFQVRDLRDSSQMVEGGESFFYSQFDVNATTALFTQMDDLVTIGFESGLLQQYDLRNPDTPIHTNESVHRYSVQDLQLSPRGDFLISASRDKTAALLDVNDLKKLKQYKSERPVNSACISPNRDHICLGGGEDAMQVTQTSVSAGHFEAKIYHMVFEEEFARFKGHFGPINTMAWHPSGTIIATGGEDGYIRIQEFDEDYLGFTYDF	not soluble
MRPMPTDDINSRIAELEADNRRLRQLLDKRDAPGELRHRLRSTVAMLRTIIRKSASKRHSLDTYVGHLEDRLDALMRAQAIADEQGAIDFHKLLADELLHYQARDGERVTFAGPDLHLQARAGQVLALAVHELAVNAVEHGALGGDGTIDIRWSVAGAGPAPLLTFVWKETDTAPVAEPSHHGFGTEVLTRTLEYELKAKTDLAFEPDGLRCTIRFPLSERVDGSQAG	not soluble

— the DeepSol protein solubility set
